Source: patent US10407488B2, “Therapy for treatment or prevention of conditions associated with bleeding or hypocoagulation” (THE REGENTS OF THE UNIVERSITY OF CALIFORNIA, priority 2013, dated 2019)
Values joined by “and” are separate entries in the source; they are usually repeats but may differ in a detail not shown here. Equal values may be shown once.

Experiments:
[1] = test system: Balb/c mice; assay: Liver laceration bleeding assay, APC-induced bleeding in Balb/c mice; format: in vivo; conditions: for mortality rate: APC-induced bleeding after liver laceration
Method: Mice were anesthetized with Isofluorane 3% and the abdomen was opened by substernal blunt midline dissection. […] Immediately after laceration mice were positioned prone into a small weighing dish (8 cm diameter) filled with saline (37° C., 13 mL), transferred into the anesthesia chamber which rested on a heating pad (37° C.). Anesthesia was maintained at 3% Isofluorane and dishes were changed after 10 minutes to collect blood for the first and second 10 minutes separately. Blood loss was determined as described for the tail clip model. Groups of Balb/c mice were injected intravenously (tail vein) with equal volumes (200 μL) of ^superFVa or saline 2 minutes prior to intravenous injection of plasma-derived human APC, followed immediately by liver laceration. All agents were diluted in sterile sodium chloride 0.9% for injection (Hospira Inc).

[2] = test system: thrombin generation in murine Balb/c plasma with rhAPC; assay: Thrombin generation in murine Balb/c plasma in the presence of rhAPC; format: biochemical, mouse
Method: (§1) BU titer values for FVIII antibodies added to FVIII-deficient plasma were determined using a modified Nijmegen Bethesda assay (Barrow and Lollar; JTH 2006, 4:2223-2229). Briefly, antibody was serially diluted in HBS with 0.05% Tween 80 and mixed 1:1 with pooled normal plasma that was supplemented with 100 mM Imidazole, pH 7.0. Samples were incubated at 37° C. for 2 hours then assayed by aPTT with APTT XL reagent (Pacific Hemostasis). A standard curve was derived from a serial dilution of normal plasma into FVIII deficient plasma that was also mixed 1:1 with HBST and incubated at 37° C. for 2 hours. Percent FVIII activity was plotted versus mg/ml of antibody and residual activity of 50% was defined as 1 BU/ml. In addition, endogenous thrombin potential (ETP) assays were performed as described (3). Briefly FVa mutants or saline were added to human or murine plasma (George King Bio-Medical; mouse source, 50% v/v) supplemented with […] corn trypsin inhibitor (Haematologic Technologies), 10 mM CaCl2, 10 μM phospholipid vesicles (80% phosphatidylcholine, 20% phosphatidylserine, prepared as described (6), 0.2 pM soluble tissue factor (Innovin®, Dade Behring), and 0.4 mM Z-Gly-Gly-Arg-AMC (thrombin substrate, Bachem) in HBS. After mixing, 100 μL was transferred to a FluoroNunc microtiter plate at 37° C. to monitor fluorescence (excitation at 360 nm/emission at 460 nm; Gemini EM fluorescent plate reader (Molecular Devices)). Fluorescence time course data were converted to nM thrombin as described (7). ETP, defined as the area under the curve, was determined using Prism 5.04 (Graphpad).
(§2) APC-mediated inactivation of FVa was analyzed in ETP assays and aPTT clotting assays. FVa mutants were incubated with equal volumes of either recombinant human APC (Xigris®) or buffer in human and murine Balb/c plasma.

[3] = test system: aPTT clotting time in human plasma; assay: aPTT clotting assay in human plasma with rhAPC; format: biochemical; conditions: human plasma
Method: as §2
(§3) Plasma (50 μL) was mixed with 50 μL of a PTT reagent (APTT-XL, Pacific Hemostasis) and incubated at 37° C. for 3 minutes in the presence of FVa either with recombinant human APC or buffer. Following addition of 25 μL of 50 mM CaCl2 in HBS, 0.5% BSA, the clotting time was recorded using an ST4 coagulometer (Diagnostica Stago).

[4] = test system: Balb/c mice; assay: Ex vivo whole blood aPTT after intravenous APC in Balb/c mice; set-up: species or system mouse; conditions: for mean whole blood aPTT clotting time: 2 minutes after intravenous APC 0.5 mg/kg, saline 30 sec
Method: Recombinant murine APC was administered intravenously to Balb/c mice by tail vein injection 2 minutes prior to retroorbital blood harvest in siliconized microcapillaries (75 μL) prefilled with 20 μL Sodium-Citrate (3.8%). Whole blood aPTT was performed immediately, whereby 50 μL of blood were mixed with 50 μL of aPTT reagent (APTT-XL, Pacific Hemostasis) and incubated at 37° C. for 3 minutes in the presence of FVa or buffer. Following addition of 25 μL of 130 mM CaCl2 in HBS, 0.5% BSA, the clotting time was recorded using an ST4 coagulometer (Diagnostica Stago).

[5] = test system: thrombin generation in normal human plasma with rhAPC; assay: Thrombin generation in normal human plasma in the presence of rhAPC; format: biochemical; conditions: human plasma
Method: as §1, §2

[6] = test system: Balb/c mice; assay: Tail clip bleeding assay, APC-induced bleeding in Balb/c mice; format: in vivo, mouse
Method: Mice were anesthetized with Isoflurane 3%, placed on temperature controlled heating pads (37° C.), and the distal portion of the tail was cut at 1.5 mm diameter after which the tail was immersed in a predefined volume of 37° C. saline (0.9% NaCl) for 20 minutes. To study effects on bleeding and clot stability, tubes were changed after 10 minutes to collect blood for the first and second 10 minutes separately. Blood loss was determined by the hemoglobin concentration in the saline solution after red cell lysis with 2% acetic acid and measured by absorbance at 490 nm. Using a hemoglobin standard derived from defined blood volumes, blood loss was calculated assuming a hematocrit of 46% and expressed in μL/g body weight. Groups of Balb/c mice were injected intravenously (tail vein) with equal volumes (200 μL) of ^superFVa or saline 2 minutes prior to intravenous injection of rhAPC (Xigris®). Immediately after APC injection tail cut was performed. All agents were diluted in sterile sodium chloride 0.9% for injection (Hospira Inc).

[7] = test system: aPTT clotting time in murine plasma; assay: aPTT clotting assay in murine plasma with rhAPC; format: biochemical, mouse
Method: as §2, §3

[8] = test system: thrombin generation in normal human plasma; assay: Thrombin generation in NHP in the presence of rivaroxaban or apixaban; format: biochemical; conditions: dose titration in NHP
Method: Thrombin generation or Endogenous Thrombin Potential (ETP) assays were performed as described. Briefly, plasma samples supplemented with CTI, TF, PCPS were preincubated […] in the presence or absence of rivaroxaban, apixaban, Kcentra®, NovoSeven® or ^superFVa. Thrombin generation was initiated by addition of CaCl2 and Z-Gly-Gly-Arg-AMC in HBS/0.5% BSA. The final reaction mixture contained, 50% plasma, 0.725 μM CTI, 0.2 Pm TF, 4 μM PCPS vesicles, 0.5 mM Z-GGR-AMC, 7.6 mM CaCl2 in a total volume of 100 μl. Concentrations of rivaroxaban, apixaban, Kcentra®, NovoSeven® or ^superFVa are indicated in the result section and in the figure legends. Fluorescence was measured at excitation/emission wavelengths of […] using Gemini EM fluorescent plate reader (Molecular Devices). Fluorescence time course data were converted to Nm thrombin as described. ETP, defined as the area under the curve (AUC) and the peak height were determined using Origin software.

[9] = plasma derived human APC 1.25 mg/kg
[10] = concentrations where ^superFVa restores

APC: Activated Protein C; recombinant human (Xigris®, Eli Lilly) or plasma-derived human APC
mean blood loss ([1]; APC 1.25 mg/kg iv, 20 minutes after liver laceration): 40 µL/g | mean blood loss ([1]; APC 1.25 mg/kg iv, 20 minutes after liver laceration, listed as wt APC): 49 µL/g | mean blood loss ([1]; APC 1.25 mg/kg, first 10 minutes after liver laceration): 35.1 µL/g | mortality rate [1]: 54% and ~50% | mortality rate ([1]; listed as wt APC): ~40% | mice died during the 1st 10 minutes after injury [1, 9]: Four of 13 | more mice died during the 2nd 10 minutes [1, 9]: Three | optimal concentration for maximal suppression of ETP [2]: 100 nM | optimal concentration for aPTT prolongation to ~100 seconds [3]: 10 nM | mean whole blood aPTT clotting time [4]: 67 s | optimal concentration for maximal suppression of ETP [5]: 5 nM | mean blood loss ([6]; APC 1.25 mg/kg iv, combined 20 minutes after tail clip): 27 µL/g | mean blood loss ([6]; APC 1.25 mg/kg, first 10 minutes after tail clip): 13.7 µL/g | mean blood loss ([6]; APC 1.25 mg/kg, second 10 minutes after tail clip): 13.2 µL/g | mean blood loss ([6]; APC, first 10 minutes after tail clip): 13.7 µL/g | dose that resulted in notable bleeding ([6]; single intravenous administration, in vivo dose response): 1.25 mg/kg | mean blood loss ([6]; wt APC 1.25 mg/kg iv, tail clip): 27 µL/g | optimal concentration for aPTT prolongation to ~100 seconds [7]: 25 nM

O=C(NC[C@H]1CN(c2ccc(N3CCOCC3=O)cc2)C(=O)O1)c1ccc(Cl)s1 [rivaroxaban, Rivaroxaban]
concentration for optimal suppression of ETP [8]: 200 nM

COc1ccc(-n2nc(C(N)=O)c3c2C(=O)N(c2ccc(N4CCCCC4=O)cc2)CC3)cc1 [apixaban, Apixaban]
concentration for optimal suppression of ETP [8]: 200 nM

FVa: wild-type recombinant human activated Factor V used as comparator [reference compound]
effect on thrombin generation suppressed by APC [2, 10]: did not show effects | aPTT ([3]; 0.05 U/mL FVa variants, 10 nM APC, ~100 seconds without FVa): ~80 s | effect on whole blood aPTT clotting times ([4]; 1 nM added to whole blood after iv APC 0.5 mg/kg): failed to show a significant effect | mean whole blood aPTT ([4]; FVa variant added ex vivo to whole blood drawn after APC 0.5 mg/kg injection): 50 s | effect on thrombin generation suppressed by APC [5, 10]: did not show effects | aPTT ([7]; 5 U/mL FVa variants, APC, ~100 seconds without FVa): ~70 s

B1: murine recombinant wt APC: Recombinant murine APC purified and prepared as previously described (protein)
chain: ANSFLEEMRPGSLERECMEEICDFEEAQEIFQNVEDTLAFWIKYFDGDQCSAPPLDHQCDSPCCGHGTCIDGIGSFSCSCDKGWEGKFCQQELRFQDCRVNNGGCLHYCLEESNGRRCACAPGYELADDHMRCKSTVNFPCGKLGRWIEKKRKILKRDTDLEDELEPDPRIVNGTLTKQGDSPWQAILLDSKKKLACGGVLIHTSWVLTAAHCVEGTKKLTVRLGEYDLRRRDHWELDLDIKEILVHPNYTRSSSDNDIALLRLAQPATLSKTIVPICLPNNGLAQELTQAGQETVVTGWGYQSDRIKDGRRNRTFILTFIRIPLVARNECVEVMKNVVSENMLCAGIIGDTRDACDGDSGGPMVVFFRGTWFLVGLVSWGEGCGHTNNYGIYTKVGSYLKWIHSYIGEKGVSLKSQKL
mean whole blood aPTT clotting time [4]: ~60 s
